Biological target: 新冠病毒SARS-CoV-2原始毒株(WT)S1抗原 (SARS-CoV-2, UniProt P0DTC2 16-685)

B1: 中和抗体YB9-258 (antibody, V domains shown)
VH: EVQLVESGGGLIQPGGSLRLSCAASGLTVSSNYMHWVRQAPGKGLEWVSVLYAGGSAFYADSVKGRFTISRNNSKNTLYLQMNSLRAEDTAIYYCARGLGDYLDSWGQGTLVTVSS
VL: DIQMTQSPSSVSASVGDRVTITCRASQGIGSWLAWYQQKPGKAPQLLIYAASTLQSGVPPRFSGSGSGTDFTLTITSLQPEDFASYYCQQANSVLALTFGGGTKVEIK
Kd: 71.7 pM

B2: 中和抗体YB13-208 (antibody, V domains shown)
V domain 1: QITLKESGPTLVKPTQTLTLTCTFSGLSLSTSGVSVGWIRQPPGKAPEWLALIYWDDDKRYSPSLTSRLSITKDTSKNQVVLTMTNMDPVDTATYYCAHPRYYGDSSGYYWIWGQGTMVTVSS
V domain 2: SYELTQPPSVSVSPGQTARITCSGDALPKQYAYWYQQKPGQAPVVVMYKTSERPSGIPERFSGSSSGTTVTLTISGVQAEDEADYYCQSADSSGFYVFGTGTQVTVL
Kd: 82 pM
